{
  "source": "paper PMC3462190",
  "about": "“A Peptidic Unconjugated GRP78/BiP Ligand Modulates the Unfolded Protein Response and Induces Prostate Cancer Cell Death” (PLoS ONE, 2012)",
  "key": {"LNCaP xenograft tumor": {"system": "LNCaP xenograft tumor", "assay": "LNCaP tumor xenograft study", "assay_type": "in vivo, athymic nude mice", "details": "mean and SD of 4–10 tumors", "protocol": "All animal experiments were performed according to European and German statutory regulations. For generation of xenograft models 5×10^6 LNCaP cells were resuspended in a solution of 50% Matrigel® (BD Bioscience, Heidelberg, Germany) in PBS or 5×10^6 22Rv.1 cells in 100 µl of PBS were subcutaneously injected into both flanks of 6–8 week-old athymic nude mice. Tumor size was measured with a caliper every week. Tumors derived from the […], […] Tumor size was assessed measuring three perpendicular diameters according to the formula: V = (1/6) [π] (d1d2d3), where π is a mathematic constant and d1, d2 and d3 represent the three spatial dimensions (width, depth and height). Mice were euthanized by cervical dislocation and the tumors removed for further analysis."}, "GADD45": {"system": "GADD45", "assay": "Interaction with GADD45 (results not shown)", "assay_type": "binding"}, "22Rv.1 xenograft tumor": {"system": "22Rv.1 xenograft tumor", "assay": "TUNEL assay on xenograft tumor sections", "assay_type": "in vivo, athymic nude mice", "details": "22Rv.1 xenografts, clones P25, P29 and P42 vs V18, V19 and V33", "protocol": "Tissues were fixed in 10% formalin for 16 h at room temperature, stored in ethanol (50%), paraffin embedded, and sectioned 5 µm thick with a Leica RM 2155 microtome. Apoptotic cells were detected via terminal deoxynucleotidyl transferase-mediated deoxyuridine-triphosphate-biotin nick end labeling (TUNEL) assay using the DNA fragmentation ApopTag® peroxidase in situ apoptosis detection kit (Millipore, Schwalbach, Germany).\nFigure 4 The Bag-1 peptide inhibits prostate cancer cell growth in vivo. A. Stable clones of 22Rv.1 cells show reduced cell viability in vitro. Stable clones were seeded in a 96-well plate and the cell number in each well was estimated by measuring the ratio between the wavelength of excitation and emission 560/590 nm using the CellTiter-Blue™ proliferation assay. The bar charts represent the mean of at least four independent experiments ±SD (*p<0.05). B. Determination of the level of the Bag-1 expressed in the 22Rv.1 clones. Cellular extracts of 22v.1 stable clones were subjected to Western blot analysis. An anti-HA antibody was used to detect the peptide and an anti-β-actin antibody for equal loading control. […] Tumor size was measured once per week using a caliper and expressed as tumor volume in mm^3. […] Nuclei are stained blue-purple with hematoxylin while apoptotic cells detected with the TUNEL assay are stained brown. […]"}, "22Rv.1 cells": {"system": "22Rv.1 cells", "assay": "CellTiter-Blue proliferation/viability assay", "assay_type": "cell-based", "details": "22Rv.1 clones P25, P29 and P42 vs vector clones V18, V19 and V33; no ER stress; 2 days; at least four independent experiments, p<0.05", "protocol": "CellTiter-Blue® cell viability assay kit (Promega) was used for the determination of cell viability. Briefly 22Rv.1 cells stably overexpressing the Bag-1 peptide were seeded into two 96 well plate (4500 cells/well) and the measurements were performed in triplicate. One plate was analyzed at day 0 and the other plate, 2 days later. Three hours after seeding, 20 µl of dye were added to each well containing 100 µl of culture medium and incubated for 4 h at 37°C. Fluorescence was measured by the plate-reading fluorometer FluoStar Optima (2001, BMG Labtechnology, software version 1.10–0) and presented as the ratio of the value at the excitation wavelength (560 nm) over the emission wavelenght (590 nm). Cell proliferation was determined from the difference between the fluorescence intensity at the final time point and the value obtained at the day of seeding of the cells (day 0).\nFigure 4 The Bag-1 peptide inhibits prostate cancer cell growth in vivo. A. Stable clones of 22Rv.1 cells show reduced cell viability in vitro. […] Tumor size was measured once per week using a caliper and expressed as tumor volume in mm^3. […] Nuclei are stained blue-purple with hematoxylin while apoptotic cells detected with the TUNEL assay are stained brown. […]"}},
  "data": [
    {"molecule": "Bag-1 peptide: internal sequence of 68 amino acids of Bag-1 (Bag1-L 202–269), HA-tagged, expressed from pcDNA3 (also: HA tag, end not given here) TPLSALGIQDGCRVMLIGKKNSPQEEVELKKLKHLEKSVEKIADQLEELNKELTGIQQGFLPKDLQAE", "values": [
      {"measurement": "Tumor weight, clone P12", "setting": "LNCaP xenograft tumor; LNCaP clone P12, termination 8 weeks, vector V82 0.65±0.29 g (8 weeks)", "result": "0.04 ± 0.03", "unit": "g"},
      {"measurement": "Tumor weight, clone P35", "setting": "LNCaP xenograft tumor; LNCaP clone P35, termination 6 weeks, vector V69 0.22±0.03 g (6 weeks)", "result": "0.05 ± 0.01", "unit": "g"},
      {"measurement": "interaction with GADD45", "setting": "GADD45", "result": "interact with GADD45"},
      {"measurement": "TUNEL positive cells (apoptosis)", "setting": "22Rv.1 xenograft tumor", "result": "strong signals indicative of massive apoptosis"},
      {"measurement": "proliferation", "setting": "22Rv.1 cells", "result": "significantly reduced proliferation"}
    ]}
  ]
}
